We go through 1 molecule from patent US20260242478A1 (published 2026).

Holding throughout (test): binding ELISA, biotinylated peptide on neutravidin plate, Fab titrated
The target in one test is T1, Peptide-134.
T1 peptide: YCEGHLPEYIQKCL

The next test deals with T2, Peptide-125.
T2 peptide: YCEGHLPEYLGKCL

For the next test, the target named is T3, Peptide-87.
T3 peptide: YCAGHAWQYINKCL

In another test the target is T4, Peptide-123.
T4 peptide: YCEGHAPEYIWKCL

In the next test the target is T5, Peptide-128.
T5 peptide: YCEGHSQEYLWKCL

The target in a further test is T6, Peptide-127.
T6 peptide: YCEGHLPEYLAKCL

Another test has as its target T7, Peptide-136.
T7 peptide: YCEGHAPEYIGKCL

A further test deals with T8, Peptide-119.
T8 peptide: YCEGHEGIYFWKCL

The target of the next test is T9, Peptide-117.
T9 peptide: YCEGHSPEYILKCL

The target in the next test is T10, Peptide-132.
T10 peptide: YCEGHLPEYRNKCL

In another test the target is T11, Peptide-133.
T11 peptide: YCEGHLPEYLEKCV

For another test, the target named is T12, Peptide-118.
T12 peptide: YCEGHRPEYILKCL

B1: anti-CD28 Fab (Fab, V domains shown)
VH: QVQLVQSGAEVKKPGASVKVSCKASGYTFTSYYIHWVRQAPGQGLEWIGSIYPGNVNTNYNEKFKDRATLTVDTSISTAYMELSRLRSDDTAVYFCTRSHYGLDWNFDVWGQGTTVTVSS
VL: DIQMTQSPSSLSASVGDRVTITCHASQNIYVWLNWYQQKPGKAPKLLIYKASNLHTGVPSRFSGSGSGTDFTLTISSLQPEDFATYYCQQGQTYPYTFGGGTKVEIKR
Take B1: the EC50 with Peptide-134 was 1.3 nM; with Peptide-125 it was 12.1 nM; in the test with Peptide-87, 30.6 nM; with Peptide-123, 8.1 nM; with Peptide-128, 59.4 nM; in the test with Peptide-127, 1.7 nM. For the same molecule, the EC50 in the test with Peptide-136 was 44.9 nM; with Peptide-119 it was 128 nM; with Peptide-117, 11 nM; with Peptide-132, 3.2 nM; with Peptide-133 it was 32.5 nM; with Peptide-118, 65.8 nM.

What is called EC50 is the concentration at which the effect is half-maximal. High values mean lower potency in that assay, low ones higher potency in that assay.
